Measurements taken from IntAct's records for PubMed 15546919.

B1: Arf-GAP with Rho-GAP domain, ANK repeat and PH domain-containing protein 3 (Mus musculus), Q8R5G7 (parent)
chain: MAAPQDLDIAVWLALVHLEQYADTFRRHGLATAGAAQHLGHEELRHLGISATGHRKRILRLLRAGSAEGFLDSHLDNTMEPTPSPAPDAQPPKPVPKPRTVFGLSNPATAQRPGLSPIFWDPEVSRNSECTQRSSPLLPSSSEQPSVPNTMEMMPNAIYFGLDLRGRAQAAQDVTPDSSQATVPTPAFRPTTGTVHIMDPGCLYYGVQPVGIPGASDRRDGRGVCQERAEHRQDLETREDAGYASLELPGDSILSLPTQDAETSDDLISPYASFSSTADRPVPLLSGWLDKLSPQGNYVFQRRFVQFNGRSLMYFGSDKDPFPKGVIPLTAIEMTRSSKDNKFQVITGQRVFVFRTESEAQRDLWCSTLQSCLKEQRLLGHPRPPHPPRPLRTGTLELRGHKAKVFAALIPGELALYKSEQAFSLGIGICFIELQGCSVRETKSRSFDLLTPHRCFSFTAESGGARQSWAAALQEAVTETLSDYEVAEKVWSNPANRHCADCRASRPDWAAVNLGVVICKQCAGQHRALGSGISKVQSLKLDTSVWSNEIVQLFIVLGNDRANCFWAGALPPGEGLHPDSAPGPRGEFISRKYKLGLFRKPHPRHPDHSQLLQALCAAMAGPNLLKNMAQLLCVETSEGEEPLSPSALNGSLLSLLPSDSPGVYNEVVVPATYRGFLYCGSISNKAGAPPLRRGRDAPPRLWCVLGAALEMFASESSPEPLSLLQPQDIVCLGVSPPPADPGDLDRFPFSFELILTGGRIQHFATDGADSLEAWISAVGKWFSPLSCHQLLGPGLLRMGRLWLRSPSHAGLAPGLWLSGFGLLRGDHLFLCPAPGPGPPAPEDMVHLRRLQEISVVSAADTPDKKEHLVLVETGRTLYLQGEGRLDFAAWNTAIGGAAGGGGTGLQEQQMSRGDIPIIVDACISFVTQHGLRLEGVYRKGGARARSLRLLAEFRRDARSVKLRPREHFVEDVTDTLKRFFRELDDPVTSARLLPRWREAAELSQKNQRLEKYKEVISCLPRVNRRTLATLIGHLYRVQKCASLNQMCTRNLALLFAPSVFQTDGRGEHEVRVLQELIDGYISVFDIDSDQAAQIDLEVSLITTWKDVQLSQAGDLIMEVYIEQQLPDNCVTLKVSPTLTAEELTNQVLEMRGAASGTDLWVTFEILEHGELERPLHPKEKVLEQALQWCQLPEPCSASLLLRKVSMAHAGCLFTGVRRESPRVGLLRCREEPPRLLGNRFQERFFLVRGRCLLLLKEKKSSKPEREWSLEGAKVYLGIRKKLKPPTLWGFTLILEKMHLCLSCMDEEEMWDWTTSILKAQHDDQQSVVLRRRSSSDLARQKFGTMPLLPIRGDDSGATLLSANQTLRRLHNRRTLSMFFPMKSPQGSVEEQDELEEPVYEEPVYEEVGAFPELTKDTTFSSTWEWSAKSDPSLTSQRSFDQPPLSKASMLGHEERIPDPPPGPPSKSSSQARGSLEEQLLQELNNLILRKGEPASCPESSSQPTSPQAPSPTSLPTPTPSLPTQPPCTSNPPSSQPLT

Variants of: B1
Conditions: with src_human SRC

Variant | effect of a mutation on the interaction
Y1399F;Y1404F | decreasing interaction
